# Assay results published in publication PMC2289953 (The Journal of Cell Biology, 1991).
# B1: radixin (natural protein, UniProt P26043 1-583, looked up)
# chain: MPKPINVRVTTMDAELEFAIQPNTTGKQLFDQVVKTVGLREVWFFGLQYVDSKGYSTWLKLNKKVTQQDVKKENPLQFKFRAKFFPEDVSEELIQEITQRLFFLQVKEAILNDEIYCPPETAVLLASYAVQAKYGDYNKEIHKPGYLANDRLLPQRVLEQHKLTKEQWEERIQNWHEEHRGMLREDSMMEYLKIAQDLEMYGVNYFEIKNKKGTELWLGVDALGLNIYEHDDKLTPKIGFPWSEIRNISFNDKKFVIKPIDKKAPDFVFYAPRLRINKRILALCMGNHELYMRRRKPDTIEVQQMKAQAREEKHQKQLERAQLENEKKKREIAEKEKERIEREKEELMERLRQIEEQTVKAQKELEEQTRKALELEQERQRAKEEAERLDRERRAAEEAKSAIAKQAADQMKNQEQLAAELAEFTAKIALLEEAKKKKEEEATEWQHKAFAAQEDLEKTKEELKTVMSAPPPPPPPPVIPPTENEHDEQDENSAEASAELSSEGVMNHRSEEERVTETQKNERVKKQLQALSSELAQARDETKKTQNDVLHAENVKAGRDKYKTLRQIRQGNTKQRIDEFEAM
# Biological target: the molecule itself
# Experiment: SDS-PAGE
protein,measurement,value
B1,stoichiometry N,2
